Assay results: patent US20160074509A1

Target: OVA323-339 in the context of MHC class II (I-A^b) (mouse; chicken) (UniProt P14434)
Assay: cell-based or functional assay

- proliferation of CFSE-labeled OT-II cells transferred into the footpad one week after immunization with OVA-KFE8D nanofibers (shift in CFSE intensity) (% of transferred cells): 60
- proliferation of adoptively transferred CFSE-labeled OT-II cells in mice immunized with OVA-Q11 or OVA in CFA (shift in CFSE intensity) (% of transferred cells): 95
Sequence: T cell receptor of OT-II transgenic CD4+ T cells (TCR)
